Structures can show the parent of a compound that is named as a salt.

For data set [1], the target named is T1, WBSCR27 (Mus musculus, UniProt Q8BGM4).
T1 construct: gene Mettl27; recombinant, 15N-labelled; purification details only in supplement
T1 sequence (Q8BGM4 1-238): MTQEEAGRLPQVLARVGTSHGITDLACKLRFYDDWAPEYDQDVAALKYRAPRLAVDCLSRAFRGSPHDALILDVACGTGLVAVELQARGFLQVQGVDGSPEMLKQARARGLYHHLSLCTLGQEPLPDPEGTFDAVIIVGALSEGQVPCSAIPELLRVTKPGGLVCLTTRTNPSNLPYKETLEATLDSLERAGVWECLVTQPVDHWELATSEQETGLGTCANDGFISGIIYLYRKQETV
Nature of the data set: 1H, […] HSQC NMR titration. The settings on record: 15N-labelled apo protein 0.2 mM, ligand 1:1 to 1:5; cofactor site. The format is binding.

The subject of data set [2] is T2, CI.
T2 construct: engineered variant V140T, recombinant; expression details only in supplement
Nature of the data set: Michaelis-Menten kinetics of SAH-PH methylation. The format is biochemical, Arabidopsis thaliana. The settings on record: co-substrate rac-SAH-PH.

Turning to `C[S+](CCC(N)[PH](=O)O)C[C@H]1O[C@@H](n2cnc3c(N)ncnc32)[C@H](O)[C@@H]1O` (mixture of isomers) [rac-SAM-PH, 5′-{S-[3-Amino-3-(hydrohydroxyphosphoryl)propy]-S-methylthionia}-5′-deoxyadenosine hydrochloride], in data set [1], the “1H,15N HSQC NMR titration” value was “WBSCR27 strongly binds to SAM-P H”.

As to “AtHMT^V140T (Arabidopsis thaliana; V140T)”, in data set [2], the Km is listed as 5.3 ± 3 mM and the kcat turned out to be 18 ± 2 min⁻¹.

Usually Km stands for the substrate concentration at which the rate is half of its maximum. The kcat is the number of substrate molecules converted per active site and unit of time at saturation.
